Where “and” joins values, the source holds several entries; their conditions need not be identical. Equal entries are not always repeated.
What was measured:
[1] = target: vacant E. coli 70S ribosome (lacking bound mRNA and tRNAs) (E. coli) (UniProt P0AG67); experiment: co-sedimentation
[2] = target: E. coli RNA polymerase core enzyme (α2ββ′ω) (E. coli) (UniProt P0A7Z4); experiment: co-sedimentation

| KD (fit assuming only monomeric holoenzyme) [1] [nM] | Kd [1] [nM] | percent bound to the ribosome [1] [%] | stoichiometry N (ribosome per RNA polymerase) [2] | percent of RNA polymerase co-migrating with ribosomes [1] [%] | stoichiometry N (RNA polymerase per ribosome) [1] | Substance |
| --- | --- | --- | --- | --- | --- | --- |
| 1200 | 1400 | 31 |  |  |  | E. coli RNA polymerase holoenzyme (core enzyme with bound sigma factor σ70) (from UniProt P0A7Z4;P0A8V2;P0A8T7;P0A800;P00579) (complex) |
|  |  | 15 |  |  |  | transcription elongation complex (core RNA polymerase with a bound DNA:RNA scaffold) (from UniProt P0A7Z4;P0A8V2;P0A8T7;P0A800) |
|  |  |  | 1 |  |  | vacant E. coli 70S ribosome (lacking bound mRNA and tRNAs) (from UniProt P0AG67;P0A7V0;P02358;P02359;P0A7X3;P0A7R9;P0A7L0;P0A7R1;P0A7K2;P0A7K6) (complex) |
|  | 930 | 90 |  | 80 | 2 and 1 | E. coli RNA polymerase core enzyme (α2ββ′ω) (from UniProt P0A7Z4;P0A8V2;P0A8T7;P0A800) (complex) |

— PMC5737488
